# Measurements taken from patent US20060257938A1, “Method of screening for drugs that block ligand binding to a lipid binding protein” (priority 2005, published 2006).
# Positions count from the first letter of the chain named. “And” between values parts separate entries of the source, which are not always exact repeats. Identical values can stand only once.
# B1: 14E, 72A (protein, listed as Rattus norvegicus)
# chain: AFDGTWKVDRNENEEKFMEKMGINVVKRKLGAHDNLKLTITQEGNKFTVKESSNFRNIDVVFELGVDFAYSAADGTELTGTWTMEGNKLVGKFKRVDNGKELIAVREISGNELIQTYTYEGVEAKRIFKKE
# modifications: PEPTIDE (1)...(131) wild-type rat intestinal fatty acid binding protein
# B2: 17C, 72A (protein, listed as Rattus norvegicus)
# chain: B1 chain with E14Y, F17C
# modifications: PEPTIDE (1)...(131) wild-type rat intestinal fatty acid binding protein
# B3: 14L, 72A (protein, listed as Rattus norvegicus)
# chain: B1 chain with E14L
# modifications: PEPTIDE (1)...(131) wild-type rat intestinal fatty acid binding protein
# B4: 14S, 72A (protein, listed as Rattus norvegicus)
# chain: B1 chain with E14S
# modifications: PEPTIDE (1)...(131) wild-type rat intestinal fatty acid binding protein
# B5: 17E, 72A (protein, listed as Rattus norvegicus)
# chain: B1 chain with E14Y, F17E
# modifications: PEPTIDE (1)...(131) wild-type rat intestinal fatty acid binding protein
# B6: 14R, 72A (protein, listed as Rattus norvegicus)
# chain: B1 chain with E14R
# modifications: PEPTIDE (1)...(131) wild-type rat intestinal fatty acid binding protein
# B7: 14I, 72A (protein, listed as Rattus norvegicus)
# chain: B1 chain with E14I
# modifications: PEPTIDE (1)...(131) wild-type rat intestinal fatty acid binding protein
# B8: 14P, 72A (protein, listed as Rattus norvegicus)
# chain: B1 chain with E14P
# modifications: PEPTIDE (1)...(131) wild-type rat intestinal fatty acid binding protein
# B9: 14H, 72A (protein, listed as Rattus norvegicus)
# chain: B1 chain with E14H
# modifications: PEPTIDE (1)...(131) wild-type rat intestinal fatty acid binding protein
# B10: 14K, 72A (protein, listed as Rattus norvegicus)
# chain: B1 chain with E14K
# modifications: PEPTIDE (1)...(131) wild-type rat intestinal fatty acid binding protein
# B11: 14F, 72A (protein, listed as Rattus norvegicus)
# chain: B1 chain with E14F
# modifications: PEPTIDE (1)...(131) wild-type rat intestinal fatty acid binding protein
# B12: 17A, 72A (protein, listed as Rattus norvegicus)
# chain: B1 chain with E14Y, F17A
# modifications: PEPTIDE (1)...(131) wild-type rat intestinal fatty acid binding protein
# B13: 14Q, 72A (protein, listed as Rattus norvegicus)
# chain: B1 chain with E14Q
# modifications: PEPTIDE (1)...(131) wild-type rat intestinal fatty acid binding protein
# B14: 14G, 72A (protein, listed as Rattus norvegicus)
# chain: B1 chain with E14G
# modifications: PEPTIDE (1)...(131) wild-type rat intestinal fatty acid binding protein
# B15: 14W, 72A (protein, listed as Rattus norvegicus)
# chain: B1 chain with E14W
# modifications: PEPTIDE (1)...(131) wild-type rat intestinal fatty acid binding protein
# B16: 102I, 72A (protein, listed as Rattus norvegicus)
# chain: B1 chain with E14Y, L102I
# modifications: PEPTIDE (1)...(131) wild-type rat intestinal fatty acid binding protein
# B17: 14V, 72A (protein, listed as Rattus norvegicus)
# chain: B1 chain with E14V
# modifications: PEPTIDE (1)...(131) wild-type rat intestinal fatty acid binding protein
# B18: 102K, 72A (protein, listed as Rattus norvegicus)
# chain: B1 chain with E14Y, L102K
# modifications: PEPTIDE (1)...(131) wild-type rat intestinal fatty acid binding protein
# B19: 17D, 72A (protein, listed as Rattus norvegicus)
# chain: B1 chain with E14Y, F17D
# modifications: PEPTIDE (1)...(131) wild-type rat intestinal fatty acid binding protein
# B20: 14N, 72A (protein, listed as Rattus norvegicus)
# chain: B1 chain with E14N
# modifications: PEPTIDE (1)...(131) wild-type rat intestinal fatty acid binding protein
# B21: 14M, 72A (protein, listed as Rattus norvegicus)
# chain: B1 chain with E14M
# modifications: PEPTIDE (1)...(131) wild-type rat intestinal fatty acid binding protein
# B22: 102L, 72A (protein, listed as Rattus norvegicus)
# chain: B1 chain with E14Y
# modifications: PEPTIDE (1)...(131) wild-type rat intestinal fatty acid binding protein
# B23: 14T, 72A (protein, listed as Rattus norvegicus)
# chain: B1 chain with E14T
# modifications: PEPTIDE (1)...(131) wild-type rat intestinal fatty acid binding protein
# Assay: Probe fluorescence ratio response to palmitic acid relative to ADIFAB2
# Type: binding
# Conditions: response relative to ADIFAB2
# In short: (§1)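 Each fatty acid's response was expressed relative to ADIFAB2, the rI-FABP-L72A probe, as ΔR/ΔRreference. ΔR is the change in the background-corrected two-wavelength intensity ratio R=Fλ1/Fλ2 from its analyte-free baseline R0. Emission was read near about 420-480 nm for unbound and about 495-580 nm for FFA-bound probe.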
row,Molecule,DR/DR PA
1,B1,0.44
2,B2,0.10
3,B3,3.07
4,B4,0.27
5,B5,0.53
6,B6,0.26
7,B7,0.59 and 0.586
8,B8,0.30
9,B9,0.17
10,B10,0.47
11,B11,0.60
12,B12,0.24
13,B13,0.33
14,B14,0.19
15,B15,0.23
16,B16,1.17 and 1.169
17,B17,0.43
18,B18,0.23
19,B19,0.16
20,B20,0.32
21,B21,0.45 and 0.452
22,B22,0.97 and 1.012
23,B23,0.36

# Assay: Probe fluorescence ratio response to arachidonic acid relative to ADIFAB2
# Type: binding
# Conditions: arachidonic acid; response relative to ADIFAB2
# In short: as §1
row,Molecule,DR/DR AA
1,B1,0.51
2,B2,0.15
3,B3,0.89
4,B4,0.46
5,B5,0.80
6,B6,0.49
7,B7,0.57 and 0.572
8,B8,0.55
9,B9,0.37
10,B10,1.08
11,B11,0.83
12,B12,0.53
13,B13,0.50
14,B14,0.43
15,B15,0.30
16,B16,1.46 and 1.461
17,B17,0.76 and 0.756
18,B18,0.47
19,B19,0.28
20,B20,0.42
21,B21,0.62 and 0.619
22,B22,1.25 and 1.103
23,B23,0.64

# Assay: Probe fluorescence ratio response to linolenic acid relative to ADIFAB2
# Type: binding
# Conditions: response relative to ADIFAB2
# In short: as §1
row,Molecule,DR/DR LNA
1,B1,0.61
2,B2,0.26
3,B3,0.93
4,B4,0.53
5,B5,0.88
6,B6,0.51
7,B7,0.90 and 0.899
8,B8,0.64
9,B9,0.42
10,B10,0.92
11,B11,0.88
12,B12,0.97
13,B13,0.52
14,B14,0.46
15,B15,0.31
16,B16,1.76 and 1.763
17,B17,0.87 and 0.868
18,B18,0.51
19,B19,0.34
20,B20,0.53
21,B21,0.68 and 0.684
22,B22,1.41 and 1.284
23,B23,1.15

# Assay: Probe fluorescence ratio response to linoleic acid relative to ADIFAB2
# Type: binding
# Conditions: response relative to ADIFAB2
# In short: as §1
row,Molecule,DR/DR LA
1,B1,0.56
2,B2,0.25
3,B3,0.87
4,B4,0.53
5,B5,0.90
6,B6,0.56
7,B7,0.79 and 0.792
8,B8,0.64
9,B9,0.45
10,B10,1.06
11,B11,0.88
12,B12,0.56
13,B13,0.48
14,B14,0.42
15,B15,0.33
16,B16,1.90 and 1.902
17,B17,0.84 and 0.836
18,B18,0.55
19,B19,0.31
20,B20,0.49
21,B21,0.68 and 0.685
22,B22,1.40 and 1.267
23,B23,0.76

# Assay: Probe fluorescence ratio response to oleic acid relative to ADIFAB2
# Type: binding
# Conditions: response relative to ADIFAB2
# In short: as §1
row,Molecule,DR/DR OA
1,B1,0.41
2,B2,0.31
3,B3,0.44
4,B4,0.33
5,B5,0.84
6,B6,0.26
7,B7,0.57 and 0.572
8,B8,0.58
9,B9,0.25
10,B10,0.84
11,B11,0.72
12,B12,0.38
13,B13,0.29
14,B14,0.24
15,B15,0.26
16,B16,1.93 and 1.929
17,B17,0.51 and 0.513
18,B18,0.48
19,B19,0.26
20,B20,0.35
21,B21,0.41 and 0.412
22,B22,1.40 and 1.366
23,B23,0.56
